Assay results published in the DeepSol protein solubility set.

assay: soluble on expression in E. coli; label from the status in PepcDB or PDB records

Row | Sequence | soluble on expression in E. coli
1 | MSVIHPLQNLLTSRDGSLVFAIIKNCILSFKYQSPNHWEFAGKWSDDFDKIQESRNTTAKEQQGQSSENENENKKLKSNKGDSIKRTAAKVPSPGLGAPPIYSYIRNLRLTSDESRLIACADSDKSLLVFDVDKTSKNVLKLRKRFCFSKRPNAISIAEDDTTVIIADKFGDVYSIDINSIPEEKFTQEPILGHVSMLTDVHLIKDSDGHQFIITSDRDEHIKISHYPQCFIVDKWLFGHKHFVSSICCGKDYLLLSAGGDDKIFAWDWKTGKNLSTFDYNSLIKPYLNDQHLAPPRFQNENNDIIEFAVSKIIKSKNLPFVAFFVEATKCIIILEMSEKQKGDLALKQIITFPYNVISLSAHNDEFQVTLDNKESSGVQKNFAKFIEYNLNENSFVVNNEKSNEFDSAIIQSVQGDSNLVTKKEEIYPLYNVSSLRKHGEHYSHHHHHH | soluble
2 | MKSIIIAAPHSGSGKTTITLGIMECLKRRGLTVAPFKVGPDFIDPGYHRLICGRPSVNLDGWMCGGDFVQETFFHHAAGADIAVVEGVMGLFDGIGGVSDEGSTAEVAKLLGGPVVLVADAKGQARSVAALVKGFADFDPEVRVVGVIFNNVASDAHGRILREAVESHLPDVRVLGCIPRDESLSIPSRHLGLFTVDENPLPAEFLDHLVEVVREHVDLGMLWSVATLQGASDVKRRQDAPRREPVRIGVARDAAFCFVYEDNLRLLREAGAELVEFSPLADRELPEGVAGLYLPGGYPEVFADVLADNTPMKDAVRGAVVGEMPVYAECGGFIYLSRGVTGMRDDLESFNEFVGIFPVATLMLPRRKALGYREVELAADSIIGPVGAMARGHEFHYSEMEAMPPEVERLYRVRRAGIDLGTEGYRHRNCLASYVHIHFGSCPDMAEAFVNHCRNYAQRSHSLEHHHHHH | soluble
3 | PKGSIIVSTRAPVGYVAIVDEDTTFNQGCKGLIPKSSEINTEFYCYYLLLIKRKLEQLSGGSTFKELPKKSLEELLIPLLPLPEQQKIAEILSTV | soluble
4 | MPLTPLDIHNKEFTRGFRGYDEDEVNEFLDQIIKDYEAVLREKKELFDRVTDLDEKLEHFQNIEETLNKSILVAQESAEEVRRNAQKEAQLIVKEAEKNADRIINDALAKSRKIMLEMEELKKQASVYKMRFKMLIEAQLEMLNTDDWDEVTEDSGDERSEEYAE | not soluble
5 | MSLKIYESYEDLPKLKLPYGNEVFISDSTIRDGSQMPGIVLSREHKIQIYEYLHEIGIEKLEAFVFNKRDRDAVDLMFDKGYEFPEITGWARSSRADIDKILEVDGIEETGILMSVSDTHIHSKMRLSGREEAEERYLDALQYAVDHGLKTRAHLEDMTRADNYGFVFPLVKKIMEIDPDCIIRVCDTVGYGMPFMNIDEPYGIPKIIQHLKKEIGVKNIETHIHDDYGFGSASSIAGFWHGANWTSVTFLGIGERAGNSEMEKILLFLADRVEGFDKYNLEPVTRFAEFMEKELGLRVPRNKAVVGKNIFAHESGIHAAGVLKNPFNYEPYPPELVGGTRLLLIGDSSGLEVIRYKVQETLNNLLDVETVVEKDDRRLLKIQKEIQKLYDKEERVSCISDEELLAYVEKYFLYQPISDPARTGRGKLKNRGKIQEPVEEKEGHHHHHH | not soluble
6 | MEVDCRVISRGKGRGPVLVSTEPLSFLGGVDPGTGRVIDQKHPLHGRSIRGKVLLIPGGKGSTVGSYVIFQMAKNETAPAAIICLNAEPIIATGAIMAGIPMVDRPSEDLLGLLEDSMEVEVDADEGKIRF | soluble
7 | MSLNAIARQEPFDLNDPALRARAVAAARGDAPFDMLITGGRLLDAVTGLIREADIGLVGALIASVHAPASRTDAVEIIDATGGILTPGLIDMHMHVESSMVTPAEYASAVLPHGVTTVVWDPHEFGNVQGLDGVRWAIEAARTLPLRMILLAPSCVPSAPGLELAGADFDAAVIAEMLRSPAVGGVAEVMNMRGVIDGDPRMSAIVNSGLASGKLVCGHARGLTGADLNAFMAAGVTSDHELTSGADLAAKLSAGLTIELRGSHDHLLQEFVEVLNGLGHLPATVTLCTDDVFPDELYQSGGLDEVARRLVRYGMKPEWALRAATFNAAQRLKRSDLGLVASGRRADLVLFEDLTELRARLVISDGRIVARNGSMEAAVQPLDTAPLINSTKLPPLTESDFRVPAKGARVRIATIDRPRFTQWGEAETEIRDGFVVPPAGSAMIAVAHRHGKAGGTPRIGFLTGWGEWRGAFCTTVSHDSHNLTVFGGDARDMALAANAVIKAGGGLAVAKDGAIQAILPLPLSGLVTDASLKDTASAFSDIRKAMDKIVDWKPPYRVFKACFGATLACNAGPHQTDRGIADVTTGKVLESPVLEIEGHHHHHH | soluble
8 | MGSDKIHHHHHHMLPETMKAVVLTAHGGLDKLVYRDDVPVPVCRAGEVLLDVTACGLNNTDVWVREGAYGTDDDPQAVSTWRRGRSTLSFPRIQGADIVGRVIAVGHGVSDARVGERVIVDASIYNRDDDSLADIDYIGHGRDGGYAEYTAVPAQSAHRIDSACSDAELATFWCAYHTGEQMIERAAVKSGETVLITGASGGVGSAIVQLCRARGAVPYAVVSKGKEEAVRELGAQGVMLRDSEDFAAAVERMTGGRPVDVVADLVGGALFGKLLNVLRPEGRYTTAGAIAGPVVQLDLRTMYLKQLQLNGSSQGTRGAFKRVLDYIQAGTIRPVLAATYPLSKFHEAQTQFMAKRFVGNIVVVPDRHYNGTADRT | not soluble
9 | MKKDIGDHLISKLDLQDIAKVLSDELSGSELNTVLLDIFNKRVQQETPSSLLSKYEGNKLVKPALLEDVLEYKEKELRCYKLIAGRGFEPIELSPVAQFGTNSVIATVDQKKVLTSLRNTEVQADPTNTIALHYASLKKKGELDNKTYNYSNISRVIRTQVFNNPNFTPHFTVLALISCGRDTGSFNFEKEELLKHLTTSYEICKSYGVEKIYYEIIPCKGYDSQSPLIMESISYVRKKNSNLEVLVIAPEHDNNYYHGFRIKQQIVIGGNTIEIADGGLLDWTQQLLTNKKERMMTFGLGIQVLYHLTK | soluble
10 | MNNFFKHTLETHTPQSMSKITSYIREDIKNSNIENGIVVVYCPHTTAGITINENADPDVVKDLIYGFEKVYPTNDHKYRHFEGNSHSHLKSSTVGVSQQLILHRGRLILGQWQDVYFCDFDGPRNRTFYVKILEGLEHHHHHH | not soluble
11 | MGSDKIHHHHHHMGIRNSKTFTSTDIATYYDVSEDHYMYFWDLNQSHSLHYGYWDASTKTFREALANINRVLAEKASITAGTRVLDAGCGVGGSSIWLAKNKQANVTGITVSKKQAARANTSAAAVNPGGTAVFDVQDYTNTPYHSESFDVVWAIESVCHAANKEDFIKEAYRLLKPGGQLIMADFFIVKDGNADDQRSIDAWGHGWAVPFFEKKDAFQHMLLKAGFNTADMIDSTEHIRRSAKRLYYAFFPGWIISKLYNLVNRRTTEFSKNNVYTAYYQYKTLKKELWKYYIVHAKK | not soluble
12 | MSALRSVLLLCWRDIGHPQGGGSEAYLQRIGAQLAASGIAVTLRTARYPGAPRHELVDGVRISRAGGRYSVYLWALLAMAAARCGLGPLRRVRPDVVVDTQNGWPFVARLLYGRRSLVLVHHCHREQWPVAGRMMGRLGWYVESMLSPRLHRRNQYVTVSLPSARDLIALGVDSERIAVVRNGLDEAPSPTLSGPRAPTPRVVVLSRLVPHKQIEDALAAVAELQPRIPGLHLDIVGGGWWRQRLVDHVHRLDIADAVTFHGHVDDVTKHHVLQSSWVHLLPSRKEGWGLAVIEAAQHGVPTIGYRSSGGLADSIVDGVTGILVDDRAELVAWLEQLLSDSVLRDQLGAKAQARSGEFSWRQSAEALRSVLEAVQASRFVSGVV | soluble
13 | GQDTGEDNLAIKGITTLNDLTMVNVSGPGMKGMVGMASRVFGAMSSAGVSIVLITQSSSEYSISFCIEADDKLKAQQVLADAFELELKDGLLEPVDFIDDVSIVTLVGDGMRTSRGVASRFFSSLAEVNVNIVAIAQGSSERAISAVIPEDKISEAIKACHENLFNSKYF | not soluble
14 | MPVVIIVEHPRFISSAGPAVKGDTGQIMKYEKTKEFPHTKKFKAICYGAMMHPKRACKLTEQPTMTKQKRKNTFLTAYYRAKEICMIYSHIFINKLPKQKLTFKQFYVKK | not soluble
15 | MSLKAAVYEGKKAIKMTELPTPKAGPNDVVIQNIYAGICGSDVAVYNHGSGTGHKIETDHEFGHEAVSKVVEVGDDVHDFKIGDRVYPYPLLARGDPSRAGSMGGFSEYILIPNAKLNRQLYLVPKEIDNHVAAMIEPFTVGTRAAKQTRPDKNDNAIVYGTGTIGMAAAVALKHLGVKQVMLVDLSDYRLNVAKELGFLTVNSSRDDVRSQAIEAFGKAEYSLHGEAPDTQIFLDAAGHNSILEDFLQFGPVGSRFVTVGVNNSKPQIDFLELIFGSKSVGGSGGYRPEDVQTVFEIMKERQSDLRKMVSQEFDWQDLEKGIQTATDTTISEKVLINYHEGHHHHHH | soluble
16 | MSLDSRLPAFRNLSPAARLDHIGQLLGLSHDDVSLLANAGALPMDIANGMIENVIGTFELPYAVASNFQINGRDVLVPLVVEEPSIVAAASYMAKLARANGGFTTSSSAPLMHAQVQIVGIQDPLNARLSLLRRKDEIIELANRKDQLLNSLGGGCRDIEVHTFADTPRGPMLVAHLIVDVRDAMGANTVNTMAEAVAPLMEAITGGQVRLRILSNLADLRLARAQVRITPQQLETAEFSGEAVIEGILDAYAFAAVDPYRAATHNKGIMNGIDPLIVATGNDWRAVEAGAHAYACRSGHYGSLTTWEKDNNGHLVGTLEMPMPVGLVGGATKTHPLAQLSLRILGVKTAQALAEIAVAVGLAQNLGAMRALATEGIQRGHMALHARNIAVVAGARGDEVDWVARQLVEYHDVRADRAVALLKQKRGQ | soluble
17 | MQNEQLLQEVGLNAYEAAAYLSLLKLGVSEASDIYRDSEVPYGKIYSVLESLAGKGFVEVQASRPKKFRAVDPELALDTFFERRKAEVEREMAFLKSSVEEAKSVLKAVPTQKRKDEFFWTTAITESEIKKFAVSIYSEVKKSVCVLPPVFGISIVFYLLPEITKAIDRGVRIKLMISPRFMALASVLSHQEGEILEKLKKGLDIRLVQNSNSCFGIVDDSIVVLFQPHPTDRDRVLSVVKVRDSGLAKNLKEEFDLLWNAGEKLDLQEELEDKQNPGKN | not soluble
18 | MRKILITGGAGFIGSALVRYIINETSDAVVVVDKLTYAGNLMSLAPVAQSERFAFEKVDICDRAELARVFTEHQPDCVMHLAAESHVDRSIDGPAAFIETNIVGTYTLLEAARAYWNALTEDKKSAFRFHHISTDEVYGDLHSTDDFFTETTPYAPSSPYSASKASSDHLVRAWLRTYGLPTLITNCSNNYGPYHFPEKLIPLMILNALAGKSLPVYGNGQQIRDWLYVEDHARALYCVATTGKVGETYNIGGHNERKNLDVVETICELLEELAPNKPHGVAHYRDLITFVADRPGHDLRYAIDASKIARELGCVPQETFESGMRKTVQWYLANESWWKQVQDGSYQGERLGLKG | soluble
19 | GPGSMESQKRMMWNLKGRSAVAALDPSTRHRIMQSHAMASSFHKPLLATLEVLITPQYVGGLTGPLQKPEPFICHVTRLLQITPDPSIVLAMLHQDVHKYLRVAALFIIRLIGNEAMMREAMRVGWEDYRKIRVYGYVEDLAGTIDSKENNAPDEEEGFVRAPAYGIMCVDEITDRLFNVGESDINKNGGSGNLWLGLRLPPILL | not soluble
20 | MALSEQSKDLSDPNFAAEAPNSEVHSSPGVSEGVPPSATLAEPQSPPLGPTAAPQAAPPPQAPNDEGDPKALQQAAEEGRAHQAPSAAQPGPAPPAPAQLVQKAHELMWYVLVKDQKKMIIWFPDMVKDVIGSYKKWCRSILRRTSLILARVFGLHLRLTSLHTMEFALVKALEPEELDRVALSNRMPMTGLLLMILSLIYVKGRGARESAVWNVLRILGLRPWKKHSTFGDVRKLITEEFVQMNYLKYQRVPYVEPPEYEFFWGSRASREITKMQIMEFLARVFKKDPQAWPSRYREALEEARALREANPTAHYPRSSVSEGHHHHHH | soluble
